US20260258110A1, “VOLTAGE GATED SODIUM CHANNEL-SPECIFIC PEPTIDE APTAMERS AND USES THEREOF” (The Medical College of Wisconsin, Inc., priority 2023, published 2026)

Assays:
Type in all cases: cell-based
hNav1.7 = biological target: T1, hNav1.7 (Homo sapiens, UniProt Q15858); experiment: Whole-cell voltage-clamp of INa1.7 in HEK1.7 cells after plasmid transfection; conditions: preliminary data
T1 construct: the Nav1.7 antibody detected full-length Nav1.7 only in HEK1.7 cells
Experimental: The stable expression of each construct was verified by transfection into HEK293 cells stably expressing human wild-type Nav1.7 (HEK1.7 cells), followed by immunoblots (IB). Representative tests for GFPlinker (GFP), 1.7iPAs (1, 2, 3, 4, 6) were shown (FIG. 1H, I). Initial screening experiments by whole-cell voltage-clamp of INa1.7 in HEK1.7 cells, transfected with plasmids encoding nine 1.7iPAs (1.7iPA1-9), were performed to characterize the INa1.7. The presence of 9 different 1.7iPAs in HEK1.7 cells on peak INa1.7 density (3 days after transfection) were summarized in FIG. 1F, in which the data points recorded by at least 2 replicates were combined. […] These experiments thus identified 1.7iPA1 and 1.7iPA4 (both derived from ICL1), as well as 1.7iPA6 (from ICL2), as effective iPAs (>50% INa1.7 inhibition). We next focused on the validation of INa1.7 inhibition and channel kinetics by 1.7iPA1, 4, and 6 on HEK1.7 cells in new experiments. […] The 1.7iPA1 peptide is polyampholytic, enriched with 38.6% positively charged arginine or lysine (17/44), 23% of serine (10/44), 14% acidic residues (6/44); and is highly conserved between rodents and humans (FIG. 2F).
EP recordings were performed, as we described previously with minor modifications at room temperature (22~25° C.) (10, 12), in a blind manner where the electrophysiologist was not aware of the treatment. Patch pipettes 0.9-2.5M2 resistance were formed from borosilicate glass (King Precision Glass Co., Claremont, CA) and fire polished. Recordings were made with an […] amplifier (Molecular Devices, Downingtown, PA). Signals were filtered at 5 kHz and sampled at 20 and 50 kHz (adopted from literature) (13-22) with a Digidata 1440A digitizer and pClamp10 software (Molecular Devices, San Jose, CA). Series resistance (3-5M (2) was monitored before and after the recordings, and data were discarded if the resistance changed by 20%. After achieving the whole-cell recording, capacitance (Cm) and series resistance (Rs) were compensated accordingly.
Sodium channel current (INa) recording in cultured cell lines. Whole-cell voltage-clamp to recording INa was performed in HEK1.7, HEK1.1, HEK1.3, HEK1.6, HEK1.5, HEK1.8, CHO1.8, NG108-15 cells, and F11cells in current-density (I-V) and fast-inactivation voltage protocols. External solution consists of the following (in mM): 110 NaCl, 20 tetraethylammonium-Cl, […]), 0.1 CaCl2, 5 MgCl2, 10 HEPES and 5.56 mM glucose (pH 7.4, 310-315 mosM/L). The internal pipette solution consisted of (in mM): 10 NaCl, 130 CsCl, 5 MgCl2, 5 EGTA, 2.5 Na2+ATP and 10 HEPES (pH 7.2). After formation of a tight seal (maximal leak amplitude <150 pA), membrane resistance and capacitance were determined. The voltage dependence of activation was assessed from holding potential using 50 ms pulses (test-pulse) to a range of test potentials from −100 mV to +50 mV in 5 mV or 10 mV incremental steps with an interval of 5 s. Current density was calculated by normalizing maximal peak currents with cell capacitance. The voltage dependence of steady-state fast inactivation was measured using a two-step protocol. A 500 ms pre-pulse with various potentials ranging from Vhold to +10 mV in 5 or 10 mV incremental steps was used to inactivate the channels. This pre-pulse was immediately followed by a 40 ms test-pulse at 0 mV to determine the remaining fraction of available channels. Inward current measured during the test-pulse to 0 mV was normalized to the cell's maximum test-pulse inward current. To determine the conductance-voltage (I-V) relationships of voltage-dependent activation, the peak current densities during each voltage command step were fitted to a smooth curve with a Boltzmann equation: I=Gmax (V-Erev)/[(1+exp [(V−V50)/k))], which provided the maximum conductance (Gmax). Normalized activation curves were fitted with a Boltzmann equation G/Gmax=1/(1+exp (V50-Vm)/k), where G was calculated as follows: G=I/(Vm−Erev). […]

BK potassium channels = experiment: BK IKv recording in NG108-15 cells
human Nav1.8 = biological target: T2, human Nav1.8 (Homo sapiens, UniProt Q9Y5Y9, DEL1030-1030/M1713V); experiment: Whole-cell voltage-clamp of INa1.8 in HEK1.8 stable cells; conditions: preliminary data, expression in HEK1.8 cells
T2 construct: cell line made in house
T2 sequence (Q9Y5Y9 with tags, fused parts or gaps DEL1030-1030/M1713V): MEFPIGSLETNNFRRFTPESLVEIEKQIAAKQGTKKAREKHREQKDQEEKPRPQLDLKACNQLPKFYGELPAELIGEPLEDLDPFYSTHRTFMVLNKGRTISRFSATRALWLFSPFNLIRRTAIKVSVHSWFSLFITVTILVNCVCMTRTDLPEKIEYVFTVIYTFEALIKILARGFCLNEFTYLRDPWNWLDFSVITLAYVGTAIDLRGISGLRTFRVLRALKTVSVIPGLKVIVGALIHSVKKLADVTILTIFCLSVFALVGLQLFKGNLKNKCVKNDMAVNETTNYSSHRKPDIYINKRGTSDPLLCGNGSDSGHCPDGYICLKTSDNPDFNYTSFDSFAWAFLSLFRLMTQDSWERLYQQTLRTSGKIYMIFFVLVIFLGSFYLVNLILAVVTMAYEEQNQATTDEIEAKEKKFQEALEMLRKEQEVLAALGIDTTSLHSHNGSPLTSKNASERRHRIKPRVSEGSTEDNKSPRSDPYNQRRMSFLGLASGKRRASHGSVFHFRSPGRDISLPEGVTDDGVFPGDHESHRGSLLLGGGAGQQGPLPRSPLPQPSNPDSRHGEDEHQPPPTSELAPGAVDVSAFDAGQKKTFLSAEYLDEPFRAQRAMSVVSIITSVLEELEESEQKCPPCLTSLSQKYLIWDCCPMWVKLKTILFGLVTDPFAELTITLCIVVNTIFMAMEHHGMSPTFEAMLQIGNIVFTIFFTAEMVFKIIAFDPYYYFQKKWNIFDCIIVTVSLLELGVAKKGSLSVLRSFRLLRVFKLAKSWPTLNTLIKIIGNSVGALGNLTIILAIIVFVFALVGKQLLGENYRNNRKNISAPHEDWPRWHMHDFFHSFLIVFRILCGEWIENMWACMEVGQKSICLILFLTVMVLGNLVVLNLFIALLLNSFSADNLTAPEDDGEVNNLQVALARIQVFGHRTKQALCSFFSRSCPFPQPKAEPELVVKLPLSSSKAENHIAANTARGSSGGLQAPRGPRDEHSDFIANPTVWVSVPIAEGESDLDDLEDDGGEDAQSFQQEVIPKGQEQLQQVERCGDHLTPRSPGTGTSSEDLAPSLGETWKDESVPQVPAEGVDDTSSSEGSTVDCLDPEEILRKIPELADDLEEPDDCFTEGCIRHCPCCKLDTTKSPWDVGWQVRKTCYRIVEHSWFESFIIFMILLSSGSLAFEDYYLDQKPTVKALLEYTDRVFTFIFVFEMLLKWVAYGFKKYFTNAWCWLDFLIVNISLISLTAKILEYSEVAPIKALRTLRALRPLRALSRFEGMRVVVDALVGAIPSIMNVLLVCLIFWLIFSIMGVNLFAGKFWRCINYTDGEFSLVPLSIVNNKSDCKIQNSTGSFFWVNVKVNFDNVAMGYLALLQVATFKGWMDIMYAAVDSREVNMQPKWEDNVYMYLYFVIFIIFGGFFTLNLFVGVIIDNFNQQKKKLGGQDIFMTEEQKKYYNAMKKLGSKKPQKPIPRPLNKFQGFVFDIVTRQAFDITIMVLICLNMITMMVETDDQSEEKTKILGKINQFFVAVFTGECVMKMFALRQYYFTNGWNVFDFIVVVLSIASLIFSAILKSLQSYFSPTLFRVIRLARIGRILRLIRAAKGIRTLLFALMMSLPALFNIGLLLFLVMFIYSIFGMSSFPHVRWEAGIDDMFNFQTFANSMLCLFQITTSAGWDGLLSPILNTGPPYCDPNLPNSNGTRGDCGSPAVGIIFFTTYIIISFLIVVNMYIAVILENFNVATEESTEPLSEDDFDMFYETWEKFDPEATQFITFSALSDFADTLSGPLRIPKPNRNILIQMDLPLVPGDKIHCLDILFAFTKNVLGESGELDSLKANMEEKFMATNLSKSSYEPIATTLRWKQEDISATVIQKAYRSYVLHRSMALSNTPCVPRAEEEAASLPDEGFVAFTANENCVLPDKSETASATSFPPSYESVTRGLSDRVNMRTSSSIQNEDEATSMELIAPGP

T1 sequence (Q15858 whole entry): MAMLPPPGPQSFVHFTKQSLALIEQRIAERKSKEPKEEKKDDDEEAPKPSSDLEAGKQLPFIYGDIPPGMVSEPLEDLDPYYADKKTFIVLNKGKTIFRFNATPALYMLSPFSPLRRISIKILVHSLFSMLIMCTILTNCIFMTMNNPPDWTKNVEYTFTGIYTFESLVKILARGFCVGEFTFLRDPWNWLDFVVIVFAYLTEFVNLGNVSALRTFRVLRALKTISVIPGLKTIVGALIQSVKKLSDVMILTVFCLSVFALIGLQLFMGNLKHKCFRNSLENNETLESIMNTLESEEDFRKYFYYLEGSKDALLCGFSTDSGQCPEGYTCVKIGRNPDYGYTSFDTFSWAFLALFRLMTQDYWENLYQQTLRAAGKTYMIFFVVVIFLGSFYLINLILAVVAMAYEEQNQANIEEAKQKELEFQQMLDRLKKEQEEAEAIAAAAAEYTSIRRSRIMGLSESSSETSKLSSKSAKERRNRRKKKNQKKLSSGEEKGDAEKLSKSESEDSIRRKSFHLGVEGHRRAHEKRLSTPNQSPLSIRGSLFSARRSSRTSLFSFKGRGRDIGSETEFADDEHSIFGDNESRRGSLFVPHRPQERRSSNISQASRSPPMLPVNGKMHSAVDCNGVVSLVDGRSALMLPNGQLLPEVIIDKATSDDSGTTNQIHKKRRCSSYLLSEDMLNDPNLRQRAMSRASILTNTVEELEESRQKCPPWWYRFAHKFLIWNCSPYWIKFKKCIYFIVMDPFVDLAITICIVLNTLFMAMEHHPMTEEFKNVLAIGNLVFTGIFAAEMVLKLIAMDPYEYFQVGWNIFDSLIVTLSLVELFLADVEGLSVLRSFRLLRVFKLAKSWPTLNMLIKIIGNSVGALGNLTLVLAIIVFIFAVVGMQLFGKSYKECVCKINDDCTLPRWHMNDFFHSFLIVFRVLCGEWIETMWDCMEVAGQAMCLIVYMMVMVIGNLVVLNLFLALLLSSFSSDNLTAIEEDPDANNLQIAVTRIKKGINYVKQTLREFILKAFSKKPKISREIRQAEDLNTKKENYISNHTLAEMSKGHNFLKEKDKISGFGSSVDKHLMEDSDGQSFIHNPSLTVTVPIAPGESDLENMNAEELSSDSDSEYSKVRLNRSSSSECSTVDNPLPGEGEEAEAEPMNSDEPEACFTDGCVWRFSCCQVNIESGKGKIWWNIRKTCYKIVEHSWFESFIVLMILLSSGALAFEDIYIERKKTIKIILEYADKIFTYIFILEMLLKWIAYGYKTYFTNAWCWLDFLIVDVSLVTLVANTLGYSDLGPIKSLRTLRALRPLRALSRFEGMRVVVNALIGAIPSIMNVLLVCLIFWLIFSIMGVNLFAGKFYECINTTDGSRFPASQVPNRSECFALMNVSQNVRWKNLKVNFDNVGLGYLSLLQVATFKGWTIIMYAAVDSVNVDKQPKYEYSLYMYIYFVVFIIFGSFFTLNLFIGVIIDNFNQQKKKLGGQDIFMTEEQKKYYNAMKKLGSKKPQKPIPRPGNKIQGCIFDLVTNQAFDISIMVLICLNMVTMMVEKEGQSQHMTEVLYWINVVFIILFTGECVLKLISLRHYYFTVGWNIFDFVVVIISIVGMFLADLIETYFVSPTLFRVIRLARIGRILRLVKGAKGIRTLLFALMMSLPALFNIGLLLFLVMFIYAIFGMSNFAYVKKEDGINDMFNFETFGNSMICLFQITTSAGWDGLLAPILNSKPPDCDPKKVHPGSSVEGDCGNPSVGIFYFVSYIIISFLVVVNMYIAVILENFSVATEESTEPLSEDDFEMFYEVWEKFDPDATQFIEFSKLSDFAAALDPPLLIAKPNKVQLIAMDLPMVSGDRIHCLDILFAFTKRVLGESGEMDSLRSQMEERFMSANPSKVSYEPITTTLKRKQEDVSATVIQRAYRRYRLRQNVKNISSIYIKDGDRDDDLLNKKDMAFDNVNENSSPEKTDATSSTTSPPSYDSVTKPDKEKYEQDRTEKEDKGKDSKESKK

Substance: 1.7/1.8iPA: disordered polyacidic 38mer from Nav1.7 intracellular loop 2 with AnkG and Pdzd2-I binding domains; dual Nav1.7/1.8 inhibitory peptide aptamer (PGESDLEIMNTEELSSDSDSDYSKEKRNRSSSSECSTV)
- effect on INa1.7 (hNav1.7; 38mer expressed in HEK1.7 cells): inhibits
- Nav1.7 voltage-gated activation (hNav1.7; HEK1.7 cells): possibly desensitized
- effect on BK IKv (BK potassium channels): No change
- effect on INa1.8 (human Nav1.8): suppresses
